{
  "source": "paper PMC8317952",
  "proteins": {"B1": {"name": "P450BM-3 (Priestia megaterium NBRC 15308 = ATCC 14581) (protein)", "chain": "MTIKEMPQPKTFGELKNLPLLNTDKPVQALMKIADELGEIFKFEAPGRVTRYLSSQRLIKEACDESRFDKNLSQALKFVRDFAGDGLFTSWTHEKNWKKAHNILLPSFSQQAMKGYHAMMVDIAVQLVQKWERLNADEHIEVPEDMTRLTLDTIGLCGFNYRFNSFYRDQPHPFITSMVRALDEAMNKLQRANPDDPAYDENKRQFQEDIKVMNDLVDKIIADRKASGEQSDDLLTHMLNGKDPETGEPLDDENIRYQIITFLIAGHETTSGLLSFALYFLVKNPHVLQKAAEEAARVLVDPVPSYKQVKQLKYVGMVLNEALRLWPTAPAFSLYAKEDTVLGGEYPLEKGDELMVLIPQLHRDKTIWGDDVEEFRPERFENPSAIPQHAFKPFGNGQRACIGQQFALHEATLVLGMMLKHFDFEDHTNYELDIKETLTLKPEGFVVKAKSKKIPLGGIPSPSTEQSAKKVRKKAENAHNTPLLVLYGSNMGTAEGTARDLADIAMSKGFAPQVATLDSHAGNLPREGAVLIVTASYNGHPPDNAKQFVDWLDQASADEVKGVRYSVFGCGDKNWATTYQKVPAFIDETLAAKGAENIADRGEADASDDFEGTYEEWREHMWSDVAAYFNLDIENSEDNKSTLSLQFVDSAADMPLAKMHGAFSTNVVASKELQQPGSARSTRHLEIELPKEASYQEGDHLGVIPRNYEGIVNRVTARFGLDASQQIRLEAEEEKLAHLPLAKTVSVEELLQYVELQDPVTRTQLRAMAAKTVCPPHKVELEALLEKQAYKEQVLAKRLTMLELLEKYPACEMKFSEFIALLPSIRPRYYSISSSPRVDEKQASITVSVVSGEAWSGYGEYKGIASNYLAELQEGDTITCFISTPQSEFTLPKDPETPLIMVGPGTGVAPFRGFVQARKQLKEQGQSLGEAHLYFGCRSPHEDYLYQEELENAQSEGIITLHTAFSRMPNQPKTYVQHVMEQDGKKLIELLDQGAHFYICGDGSQMAPAVEATLMKSYADVHQVSEADARLWLQQLEEKGRYAKDVWAG"}},
  "key": {"[1]": {"substrate": "CCCCCCCCCCCCCCOS(=O)(=O)O", "assay": "Steady-state NADPH oxidation", "assay_type": "biochemical, Bacillus megaterium", "conditions": "other: rates of NADPH oxidation, 23 °C, pH 7.4"}, "[2]": {"substrate": "CCCCCCCCCCCCCCCC(=O)O", "assay": "Steady-state NADPH oxidation", "assay_type": "biochemical, Bacillus megaterium", "conditions": "other: rates of NADPH oxidation, hyperbolic fit, 23 °C, pH 7.4"}},
  "note": "Several values for one entry are separate records, joined by “and”; a condition that tells them apart may be missing. Equal values may be shown once.",
  "data": [
    {"protein": "B1", "values": [
      {"measurement": "kcat/Km", "setting": "[1]", "result": "7.7e+06 M⁻¹ s⁻¹ and 3e+06 M⁻¹ s⁻¹"},
      {"measurement": "Km", "setting": "[1]; hyperbolic fit", "result": "4.2 ± 0.6", "unit": "µM"},
      {"measurement": "kcat", "setting": "[1]; hyperbolic fit", "result": 1940, "unit": "min⁻¹"},
      {"measurement": "kcat/Km", "setting": "[1]; hyperbolic fit", "result": "7.67e+06 ± 1e+06", "unit": "M⁻¹ s⁻¹"},
      {"measurement": "Km", "setting": "[2]", "result": "67 ± 8", "unit": "µM"}
    ]}
  ]
}
